Measurements as given in doi:10.1101/2020.08.23.263558 (bioRxiv, 2020).

Target: the molecule itself
Experiment: cryo-EM structure

B1: full length human Top2α (1-1531) (enzyme)
chain: MEVSPLQPVNENMQVNKIKKNEDAKKRLSVERIYQKKTQLEHILLRPDTYIGSVELVTQQMWVYDEDVGINYREVTFVPGLYKIFDEILVNAADNKQRDPKMSCIRVTIDPENNLISIWNNGKGIPVVEHKVEKMYVPALIFGQLLTSSNYDDDEKKVTGGRNGYGAKLCNIFSTKFTVETASREYKKMFKQTWMDNMGRAGEMELKPFNGEDYTCITFQPDLSKFKMQSLDKDIVALMVRRAYDIAGSTKDVKVFLNGNKLPVKGFRSYVDMYLKDKLDETGNSLKVIHEQVNHRWEVCLTMSEKGFQQISFVNSIATSKGGRHVDYVADQIVTKLVDVVKKKNKGGVAVKAHQVKNHMWIFVNALIENPTFDSQTKENMTLQPKSFGSTCQLSEKFIKAAIGCGIVESILNWVKFKAQVQLNKKCSAVKHNRIKGIPKLDDANDAGGRNSTECTLILTEGDSAKTLAVSGLGVVGRDKYGVFPLRGKILNVREASHKQIMENAEINNIIKIVGLQYKKNYEDEDSLKTLRYGKIMIMTDQDQDGSHIKGLLINFIHHNWPSLLRHRFLEEFITPIVKVSKNKQEMAFYSLPEFEEWKSSTPNHKKWKVKYYKGLGTSTSKEAKEYFADMKRHRIQFKYSGPEDDAAISLAFSKKQIDDRKEWLTNFMEDRRQRKLLGLPEDYLYGQTTTYLTYNDFINKELILFSNSDNERSIPSMVDGLKPGQRKVLFTCFKRNDKREVKVAQLAGSVAEMSSYHHGEMSLMMTIINLAQNFVGSNNLNLLQPIGQFGTRLHGGKDSASPRYIFTMLSSLARLLFPPKDDHTLKFLYDDNQRVEPEWYIPIIPMVLINGAEGIGTGWSCKIPNFDVREIVNNIRRLMDGEEPLPMLPSYKNFKGTIEELAPNQYVISGEVAILNSTTIEISELPVRTWTQTYKEQVLEPMLNGTEKTPPLITDYREYHTDTTVKFVVKMTEEKLAEAERVGLHKVFKLQTSLTCNSMVLFDHVGCLKKYDTVLDILRDFFELRLKYYGLRKEWLLGMLGAESAKLNNQARFILEKIDGKIIIENKPKKELIKVLIQRGYDSDPVKAWKEAQQKVPDEEENEESDNEKETEKSDSVTDSGPTFNYLLDMPLWYLTKEKKDELCRLRNEKEQELDTLKRKSPSDLWKEDLATFIEELEAVEAKEKQDEQVGLPGKGGKAKGKKTQMAEVLPSPRGQRVIPRITIEMKAEAEKKNKKKIKNENTEGSPQEDGVELEGLKQRLEKKQKREPGTKTKKQTTLAFKPIKKGKKRNPWSDSESDRSSDESNFDVPPRETEPRRAATKTKFTMDLDSDEDFSDFDEKTDDEDFVPSDASPPKTKTSPKLSNKELKPQKSVVSDLEADDVKGSVPLSSSPPATHFPDETEITNPVPKKNVTVKKTAAKSQSSTSTTGAKKRAAPKGTKRDPALNSGVSQKPDPAKTKNRRKRKPSTSDDSDSNFEKIVSKAVTSKKSKGESDDFHMDFDSAVAPRAKSVRAKKPIKYLEESDEDDLF
With B1 the “stoichiometry N” value was 2.
